# Numbered stars: 1 amine (or outer) side, 2 acyl side, 3 side chain; on linkers, the order of the positions; unused ones are H or OH. Bridge positions count the residues as written; N and C are the ends. Side chains are listed from the residue outwards. Ends that are not written are not given here. * marks the point of attachment. C20 diacid = O=C(O)CCCCCCCCCCCCCCCCCCC(=O)*; γGlu = O=C(O)[C@H](CCC(=O)[*:2])N[*:1]
# T1: human calcitonin receptor (human, UniProt P30988 25-474)
# T1 construct: whole, on cells; Assayed as cell membranes of BHK tk'ts 13 cells stably transfected with the human calcitonin receptor (Assay VII); also called hCTR; hCT
# T1 sequence (looked up): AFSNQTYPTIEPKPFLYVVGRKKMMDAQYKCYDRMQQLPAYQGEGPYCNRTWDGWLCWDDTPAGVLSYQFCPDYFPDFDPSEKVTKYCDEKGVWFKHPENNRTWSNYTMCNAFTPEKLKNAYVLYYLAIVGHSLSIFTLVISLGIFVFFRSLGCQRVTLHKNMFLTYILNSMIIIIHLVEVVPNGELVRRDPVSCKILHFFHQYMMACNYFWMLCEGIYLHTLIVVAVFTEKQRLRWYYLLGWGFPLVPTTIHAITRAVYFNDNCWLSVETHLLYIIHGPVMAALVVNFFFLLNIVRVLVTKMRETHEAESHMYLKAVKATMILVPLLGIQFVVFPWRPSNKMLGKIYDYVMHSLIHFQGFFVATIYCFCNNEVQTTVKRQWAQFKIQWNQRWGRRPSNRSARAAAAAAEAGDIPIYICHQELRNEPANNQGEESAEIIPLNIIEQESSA
# Columns and labels:
# [1] = target: T1, human calcitonin receptor; assay: IC50 at hCTR divided by IC50 at hAmylin-R (SPA competition assays V and VII)
# How it was run: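 Scintillation proximity competition binding on cell membranes at 35 ng/μL with SPA beads, in 50 mM Hepes pH 7.4, 1 mM CaCl2, 5 mM MgCl₂, 0.1% OA, 0.02% Tween20. Incubated 120 min at 25° C with shaking. IC₅₀ from one-site competition fit.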
# [2] = target: T1, human calcitonin receptor; assay: SPA competition vs 125I-calcitonin, membranes of BHK cells with human calcitonin receptor (Assay VII)
# How it was run: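 BHK hCTR membranes 35 ng/μL + SPA beads 0.05 mg/well; buffer 50 mM Hepes pH 7.4, 1 mM CaCl2, 5 mM MgCl₂, 0.1% OA, 0.02% Tween20. 120 min, 25° C., shaking. Scintillation count; IC50 by one-site binding competition.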
Ratio hCT/hAmylin binding [1],IC50 [2],Binder
101,17.8 nM,"K([γGlu-C20 diacid])CNTATCATQRLAAFLRHSSPNFGAIPSSTNVGHNTY-NH2 (disulfide 2-7; N-terminus assumed; SMILES CC[C@H](C)[C@H](NC(=O)[C@H](C)NC(=O)CNC(=O)[C@H](Cc1ccccc1)NC(=O)[C@H](CC(N)=O)NC(=O)[C@@H]1CCCN1C(=O)[C@H](CO)NC(=O)[C@H](CO)NC(=O)[C@H](Cc1c[nH]cn1)NC(=O)[C@H](CCCNC(=N)N)NC(=O)[C@H](CC(C)C)NC(=O)[C@H](Cc1ccccc1)NC(=O)[C@H](C)NC(=O)[C@H](C)NC(=O)[C@H](CC(C)C)NC(=O)[C@H](CCCNC(=N)N)NC(=O)[C@H](CCC(N)=O)NC(=O)[C@@H](NC(=O)[C@H](C)NC(=O)[C@@H]1CSSC[C@H](NC(=O)[C@@H](N)CCCCNC(=O)CC[C@H](NC(=O)CCCCCCCCCCCCCCCCCCC(=O)O)C(=O)O)C(=O)N[C@@H](CC(N)=O)C(=O)N[C@@H]([C@@H](C)O)C(=O)N[C@@H](C)C(=O)N[C@@H]([C@@H](C)O)C(=O)N1)[C@@H](C)O)C(=O)N1CCC[C@H]1C(=O)N[C@@H](CO)C(=O)N[C@@H](CO)C(=O)N[C@H](C(=O)N[C@@H](CC(N)=O)C(=O)N[C@H](C(=O)NCC(=O)N[C@@H](Cc1c[nH]cn1)C(=O)N[C@@H](CC(N)=O)C(=O)N[C@H](C(=O)N[C@@H](Cc1ccc(O)cc1)C(N)=O)[C@@H](C)O)C(C)C)[C@@H](C)O, also called compound 93)"
46.1,36.4 nM,"K([γGlu-C20 diacid])CNTATCATQRLANFLRHSSPNFGAIPSSTNVGRNTY-NH2 (disulfide 2-7; N-terminus assumed; SMILES CC[C@H](C)[C@H](NC(=O)[C@H](C)NC(=O)CNC(=O)[C@H](Cc1ccccc1)NC(=O)[C@H](CC(N)=O)NC(=O)[C@@H]1CCCN1C(=O)[C@H](CO)NC(=O)[C@H](CO)NC(=O)[C@H](Cc1c[nH]cn1)NC(=O)[C@H](CCCNC(=N)N)NC(=O)[C@H](CC(C)C)NC(=O)[C@H](Cc1ccccc1)NC(=O)[C@H](CC(N)=O)NC(=O)[C@H](C)NC(=O)[C@H](CC(C)C)NC(=O)[C@H](CCCNC(=N)N)NC(=O)[C@H](CCC(N)=O)NC(=O)[C@@H](NC(=O)[C@H](C)NC(=O)[C@@H]1CSSC[C@H](NC(=O)[C@@H](N)CCCCNC(=O)CC[C@H](NC(=O)CCCCCCCCCCCCCCCCCCC(=O)O)C(=O)O)C(=O)N[C@@H](CC(N)=O)C(=O)N[C@@H]([C@@H](C)O)C(=O)N[C@@H](C)C(=O)N[C@@H]([C@@H](C)O)C(=O)N1)[C@@H](C)O)C(=O)N1CCC[C@H]1C(=O)N[C@@H](CO)C(=O)N[C@@H](CO)C(=O)N[C@H](C(=O)N[C@@H](CC(N)=O)C(=O)N[C@H](C(=O)NCC(=O)N[C@@H](CCCNC(=N)N)C(=O)N[C@@H](CC(N)=O)C(=O)N[C@H](C(=O)N[C@@H](Cc1ccc(O)cc1)C(N)=O)[C@@H](C)O)C(C)C)[C@@H](C)O, also called compound 79) [N^ε1-[(4S)-4-carboxy-4-(19-carboxynonadecanoylamino)butanoyl]-[Arg17,Pro21,Pro27,Arg34]-h-amylin]"
46.3,6.86 nM,"K([γGlu-C20 diacid])CNTATCATQRLAAFLRHSSPNFGAIPSSTNVGPNTY-NH2 (disulfide 2-7; N-terminus assumed; SMILES CC[C@H](C)[C@H](NC(=O)[C@H](C)NC(=O)CNC(=O)[C@H](Cc1ccccc1)NC(=O)[C@H](CC(N)=O)NC(=O)[C@@H]1CCCN1C(=O)[C@H](CO)NC(=O)[C@H](CO)NC(=O)[C@H](Cc1c[nH]cn1)NC(=O)[C@H](CCCNC(=N)N)NC(=O)[C@H](CC(C)C)NC(=O)[C@H](Cc1ccccc1)NC(=O)[C@H](C)NC(=O)[C@H](C)NC(=O)[C@H](CC(C)C)NC(=O)[C@H](CCCNC(=N)N)NC(=O)[C@H](CCC(N)=O)NC(=O)[C@@H](NC(=O)[C@H](C)NC(=O)[C@@H]1CSSC[C@H](NC(=O)[C@@H](N)CCCCNC(=O)CC[C@H](NC(=O)CCCCCCCCCCCCCCCCCCC(=O)O)C(=O)O)C(=O)N[C@@H](CC(N)=O)C(=O)N[C@@H]([C@@H](C)O)C(=O)N[C@@H](C)C(=O)N[C@@H]([C@@H](C)O)C(=O)N1)[C@@H](C)O)C(=O)N1CCC[C@H]1C(=O)N[C@@H](CO)C(=O)N[C@@H](CO)C(=O)N[C@H](C(=O)N[C@@H](CC(N)=O)C(=O)N[C@H](C(=O)NCC(=O)N1CCC[C@H]1C(=O)N[C@@H](CC(N)=O)C(=O)N[C@H](C(=O)N[C@@H](Cc1ccc(O)cc1)C(N)=O)[C@@H](C)O)C(C)C)[C@@H](C)O, also called compound 94)"
146,137 nM,"K([γGlu-C20 diacid])CNTATCATQRLARFLRHSSPNFGAIPSSTNVGSNTY-NH2 (disulfide 2-7; N-terminus assumed; SMILES CC[C@H](C)[C@H](NC(=O)[C@H](C)NC(=O)CNC(=O)[C@H](Cc1ccccc1)NC(=O)[C@H](CC(N)=O)NC(=O)[C@@H]1CCCN1C(=O)[C@H](CO)NC(=O)[C@H](CO)NC(=O)[C@H](Cc1c[nH]cn1)NC(=O)[C@H](CCCNC(=N)N)NC(=O)[C@H](CC(C)C)NC(=O)[C@H](Cc1ccccc1)NC(=O)[C@H](CCCNC(=N)N)NC(=O)[C@H](C)NC(=O)[C@H](CC(C)C)NC(=O)[C@H](CCCNC(=N)N)NC(=O)[C@H](CCC(N)=O)NC(=O)[C@@H](NC(=O)[C@H](C)NC(=O)[C@@H]1CSSC[C@H](NC(=O)[C@@H](N)CCCCNC(=O)CC[C@H](NC(=O)CCCCCCCCCCCCCCCCCCC(=O)O)C(=O)O)C(=O)N[C@@H](CC(N)=O)C(=O)N[C@@H]([C@@H](C)O)C(=O)N[C@@H](C)C(=O)N[C@@H]([C@@H](C)O)C(=O)N1)[C@@H](C)O)C(=O)N1CCC[C@H]1C(=O)N[C@@H](CO)C(=O)N[C@@H](CO)C(=O)N[C@H](C(=O)N[C@@H](CC(N)=O)C(=O)N[C@H](C(=O)NCC(=O)N[C@@H](CO)C(=O)N[C@@H](CC(N)=O)C(=O)N[C@H](C(=O)N[C@@H](Cc1ccc(O)cc1)C(N)=O)[C@@H](C)O)C(C)C)[C@@H](C)O, also called compound 83) [N^ε1-[(4S)-4-carboxy-4-(19-carboxynonadecanoylamino)butanoyl]-[Arg14,Arg17,Pro21,Pro27]-h-amylin]"
157,130 nM,"K([γGlu-C20 diacid])CNTATCATQRLARFLRHSSPNFGAIPSSTPVGSNTY-NH2 (disulfide 2-7; N-terminus assumed; SMILES CC[C@H](C)[C@H](NC(=O)[C@H](C)NC(=O)CNC(=O)[C@H](Cc1ccccc1)NC(=O)[C@H](CC(N)=O)NC(=O)[C@@H]1CCCN1C(=O)[C@H](CO)NC(=O)[C@H](CO)NC(=O)[C@H](Cc1c[nH]cn1)NC(=O)[C@H](CCCNC(=N)N)NC(=O)[C@H](CC(C)C)NC(=O)[C@H](Cc1ccccc1)NC(=O)[C@H](CCCNC(=N)N)NC(=O)[C@H](C)NC(=O)[C@H](CC(C)C)NC(=O)[C@H](CCCNC(=N)N)NC(=O)[C@H](CCC(N)=O)NC(=O)[C@@H](NC(=O)[C@H](C)NC(=O)[C@@H]1CSSC[C@H](NC(=O)[C@@H](N)CCCCNC(=O)CC[C@H](NC(=O)CCCCCCCCCCCCCCCCCCC(=O)O)C(=O)O)C(=O)N[C@@H](CC(N)=O)C(=O)N[C@@H]([C@@H](C)O)C(=O)N[C@@H](C)C(=O)N[C@@H]([C@@H](C)O)C(=O)N1)[C@@H](C)O)C(=O)N1CCC[C@H]1C(=O)N[C@@H](CO)C(=O)N[C@@H](CO)C(=O)N[C@H](C(=O)N1CCC[C@H]1C(=O)N[C@H](C(=O)NCC(=O)N[C@@H](CO)C(=O)N[C@@H](CC(N)=O)C(=O)N[C@H](C(=O)N[C@@H](Cc1ccc(O)cc1)C(N)=O)[C@@H](C)O)C(C)C)[C@@H](C)O, also called compound 63)"
82.4,53.5 nM,"K([γGlu-C20 diacid])CNTATCATQRLARFLRHSSPNFGAIPSSTNVGPNTY-NH2 (disulfide 2-7; N-terminus assumed; SMILES CC[C@H](C)[C@H](NC(=O)[C@H](C)NC(=O)CNC(=O)[C@H](Cc1ccccc1)NC(=O)[C@H](CC(N)=O)NC(=O)[C@@H]1CCCN1C(=O)[C@H](CO)NC(=O)[C@H](CO)NC(=O)[C@H](Cc1c[nH]cn1)NC(=O)[C@H](CCCNC(=N)N)NC(=O)[C@H](CC(C)C)NC(=O)[C@H](Cc1ccccc1)NC(=O)[C@H](CCCNC(=N)N)NC(=O)[C@H](C)NC(=O)[C@H](CC(C)C)NC(=O)[C@H](CCCNC(=N)N)NC(=O)[C@H](CCC(N)=O)NC(=O)[C@@H](NC(=O)[C@H](C)NC(=O)[C@@H]1CSSC[C@H](NC(=O)[C@@H](N)CCCCNC(=O)CC[C@H](NC(=O)CCCCCCCCCCCCCCCCCCC(=O)O)C(=O)O)C(=O)N[C@@H](CC(N)=O)C(=O)N[C@@H]([C@@H](C)O)C(=O)N[C@@H](C)C(=O)N[C@@H]([C@@H](C)O)C(=O)N1)[C@@H](C)O)C(=O)N1CCC[C@H]1C(=O)N[C@@H](CO)C(=O)N[C@@H](CO)C(=O)N[C@H](C(=O)N[C@@H](CC(N)=O)C(=O)N[C@H](C(=O)NCC(=O)N1CCC[C@H]1C(=O)N[C@@H](CC(N)=O)C(=O)N[C@H](C(=O)N[C@@H](Cc1ccc(O)cc1)C(N)=O)[C@@H](C)O)C(C)C)[C@@H](C)O, also called compound 65)"

# Source: patent US20140087995A1 (published 2014)
